{
  "source": "the RNAGym collection of RNA variant scans (doi:10.7554/elife.80360)",
  "parents": {"B1": {"name": "Hairpin Ribozyme (parent)", "chain": "GUCCUCUUUCACGUGCGCGUGAAAGAGAGAAGUGAACCAGAGAAACACACGUUGUGGUAUAUUACCUGGUA"}},
  "data": [
    {"variants_of": "B1", "experiment": "self-cleavage, relative activity (ratio to wild type); higher = more cleavage; co-transcriptional", "values": [
      {"variant": "GUCCUCUUUCACGUGCGCGUGAAAGAGAGAAGAGAACCAGAGAAACACACGUUGUCGUAUAUUACCUGGUA", "note": "[U33A G56C]", "self-cleavage": 0.11},
      {"variant": "GUCCUCUUUCACGUGCGCGUGAAAGAGAGAAGCGAACCAGAGACACACACGUUGUGGUAUAUUACCUGGUA", "note": "[U33C A44C]", "self-cleavage": 0.226},
      {"variant": "GUCCUCUUUCACGUGCGCGUGAAAGAGAGAAGCAAACCAGAGAAACACACGUUGUGGUAUAUUACCUGGUA", "note": "[U33C G34A]", "self-cleavage": 0.142},
      {"variant": "GUCCUCUUUCACGUGCGCGUGAAAGAGAGAAGAGAACCAGAGAAACACACGUUGUGCUAUAUUACCUGGUA", "note": "[U33A G57C]", "self-cleavage": 0.157},
      {"variant": "GUCCUCUUUCACGUGCGCGUGAAAGAGAGAAGAGAACCAGAGAAACACACGUUGUGAUAUAUUACCUGGUA", "note": "[U33A G57A]", "self-cleavage": 0.137},
      {"variant": "GUCCUCUUUCACGUGCGCGUGAAAGAGAGAAGAGAACCAGAGAAACACACGUUGUGGUAUAUUACCAGGUA", "note": "[U33A U67A]", "self-cleavage": 0.0848},
      {"variant": "GUCCUCUUUCACGUGCGCGUGAAAGAGAGAAGAGAACCAGAGAAACACACGAUGUGGUAUAUUACCUGGUA", "note": "[U33A U52A]", "self-cleavage": 0.122},
      {"variant": "GUCCUCUUUCACGUGCGCGUGAAAGAGAGAAGCGAACCAGAGGAACACACGUUGUGGUAUAUUACCUGGUA", "note": "[U33C A43G]", "self-cleavage": 0.196},
      {"variant": "GUCCUCUUUCACGUGCGCGUGAAAGAGAGAAGAGACCCAGAGAAACACACGUUGUGGUAUAUUACCUGGUA", "note": "[U33A A36C]", "self-cleavage": 0.0569},
      {"variant": "GUCCUCUUUCACGUGCGCGUGAAAGAGAGAAGAGAACCAGACAAACACACGUUGUGGUAUAUUACCUGGUA", "note": "[U33A G42C]", "self-cleavage": 0.14},
      {"variant": "GUCCUCUUUCACGUGCGCGUGAAAGAGAGAAGAGAACCAGAGAAACACACGUUGUGGUCUAUUACCUGGUA", "note": "[U33A A59C]", "self-cleavage": 0.143},
      {"variant": "GUCCUCUUUCACGUGCGCGUGAAAGAGAGAAGAGAACCAGAGAAACACACGUUGUGGUUUAUUACCUGGUA", "note": "[U33A A59U]", "self-cleavage": 0.177},
      {"variant": "GUCCUCUUUCACGUGCGCGUGAAAGAGAGAAGCGAACCAGAGAAACACACGUUGUGGUAUAUUCCCUGGUA", "note": "[U33C A64C]", "self-cleavage": 0.102},
      {"variant": "GUCCUCUUUCACGUGCGCGUGAAAGAGAGAAGCGAACCAGAGAAACACACGUUGUGGUAUAUUGCCUGGUA", "note": "[U33C A64G]", "self-cleavage": 0.0772},
      {"variant": "GUCCUCUUUCACGUGCGCGUGAAAGAGAGAAGCGGACCAGAGAAACACACGUUGUGGUAUAUUACCUGGUA", "note": "[U33C A35G]", "self-cleavage": 0.192},
      {"variant": "GUCCUCUUUCACGUGCGCGUGAAAGAGAGAAGCGCACCAGAGAAACACACGUUGUGGUAUAUUACCUGGUA", "note": "[U33C A35C]", "self-cleavage": 0.12},
      {"variant": "GUCCUCUUUCACGUGCGCGUGAAAGAGAGAAGAGAACCAGAGAAACACACGUUGUGGUAUAUUAGCUGGUA", "note": "[U33A C65G]", "self-cleavage": 0.225},
      {"variant": "GUCCUCUUUCACGUGCGCGUGAAAGAGAGAAGAGAACCAGAGAAACACACGUUGUGGUAUAUUAACUGGUA", "note": "[U33A C65A]", "self-cleavage": 0.225},
      {"variant": "GUCCUCUUUCACGUGCGCGUGAAAGAGAGAAUUGAACCAGAGAAACACACGUUGUGGUAUAUUACCUGGAA", "note": "[G32U U70A]", "self-cleavage": 0.111},
      {"variant": "GUCCUCUUUCACGUGCGCGUGAAAGAGAGAAGAGAACCAGAGAAACACACCUUGUGGUAUAUUACCUGGUA", "note": "[U33A G51C]", "self-cleavage": 0.157},
      {"variant": "GUCCUCUUUCACGUGCGCGUGAAAGAGAGAAUUGAACCAGAGAAACACACGUUGUGGUAGAUUACCUGGUA", "note": "[G32U U60G]", "self-cleavage": 0.0848},
      {"variant": "GUCCUCUUUCACGUGCGCGUGAAAGAGAGAAUUGAACCAGAGAAACACACGUUGUGGUAUAUUACCUGCUA", "note": "[G32U G69C]", "self-cleavage": 0.136},
      {"variant": "GUCCUCUUUCACGUGCGCGUGAAAGAGAGAAGCGAACAAGAGAAACACACGUUGUGGUAUAUUACCUGGUA", "note": "[U33C C38A]", "self-cleavage": 0.087},
      {"variant": "GUCCUCUUUCACGUGCGCGUGAAAGAGAGAAGCGAACCAGAGAAACACACGUUGUGGUAUAUUAGCUGGUA", "note": "[U33C C65G]", "self-cleavage": 0.138},
      {"variant": "GUCCUCUUUCACGUGCGCGUGAAAGAGAGAAGCGAACCAGAGAAACACACGUUGUGGUAUAUUAACUGGUA", "note": "[U33C C65A]", "self-cleavage": 0.159},
      {"variant": "GUCCUCUUUCACGUGCGCGUGAAAGAGAGAAGAGAACCAGAGAAACACACGUUGUGGUAUAUUACCUGGUC", "note": "[U33A A71C]", "self-cleavage": 0.389},
      {"variant": "GUCCUCUUUCACGUGCGCGUGAAAGAGAGAAGAGAACCAGAGAAACACACGUUGUGGUAUAUUACCUGGUU", "note": "[U33A A71U]", "self-cleavage": 0.137},
      {"variant": "GUCCUCUUUCACGUGCGCGUGAAAGAGAGAAUUGAACCAGAGAAACACACGUUGUUGUAUAUUACCUGGUA", "note": "[G32U G56U]", "self-cleavage": 0.145},
      {"variant": "GUCCUCUUUCACGUGCGCGUGAAAGAGAGAAGAGAACCAGAGACACACACGUUGUGGUAUAUUACCUGGUA", "note": "[U33A A44C]", "self-cleavage": 0.205},
      {"variant": "GUCCUCUUUCACGUGCGCGUGAAAGAGAGAAGAGAACCAGAGAGACACACGUUGUGGUAUAUUACCUGGUA", "note": "[U33A A44G]", "self-cleavage": 0.16},
      {"variant": "GUCCUCUUUCACGUGCGCGUGAAAGAGAGAAGAGAACCAGAGAAACACACGUUAUGGUAUAUUACCUGGUA", "note": "[U33A G54A]", "self-cleavage": 0.213},
      {"variant": "GUCCUCUUUCACGUGCGCGUGAAAGAGAGAAGAGAACCAGAGAAACACACGUUUUGGUAUAUUACCUGGUA", "note": "[U33A G54U]", "self-cleavage": 0.186},
      {"variant": "GUCCUCUUUCACGUGCGCGUGAAAGAGAGAAGCGAACCAGAGAAACACACGUUGUGGUAUAUUACAUGGUA", "note": "[U33C C66A]", "self-cleavage": 0.0633},
      {"variant": "GUCCUCUUUCACGUGCGCGUGAAAGAGAGAAGAGAACCAGAGAAACACACGUUGUGGUACAUUACCUGGUA", "note": "[U33A U60C]", "self-cleavage": 0.263},
      {"variant": "GUCCUCUUUCACGUGCGCGUGAAAGAGAGAAGAGAACCAGAGAAACACACGUUGUGGUAGAUUACCUGGUA", "note": "[U33A U60G]", "self-cleavage": 0.0384},
      {"variant": "GUCCUCUUUCACGUGCGCGUGAAAGAGAGAAGCGAACCUGAGAAACACACGUUGUGGUAUAUUACCUGGUA", "note": "[U33C A39U]", "self-cleavage": 0.0555},
      {"variant": "GUCCUCUUUCACGUGCGCGUGAAAGAGAGAAGAGAACCAGAGAAACACACGUUGUGGUAUAUCACCUGGUA", "note": "[U33A U63C]", "self-cleavage": 0.0601},
      {"variant": "GUCCUCUUUCACGUGCGCGUGAAAGAGAGAAGAGAACCAGAGAAACCCACGUUGUGGUAUAUUACCUGGUA", "note": "[U33A A47C]", "self-cleavage": 0.0723}
    ]}
  ]
}
